What was measured:
Assay in all cases: cell-based or functional assay
[1] = target: HIV-1 93UG077 envelope glycoprotein (Env) (HIV-1)
[2] = target: HIV-1 94UG114 envelope glycoprotein (Env) on pseudovirus (HIV-1)
[3] = target: HIV-1 CMU02 envelope glycoprotein (Env) on pseudovirus (HIV-1)
[4] = target: HIV-1 Env of isolate MGRM-D-004 (clade D) (HIV-1)
[5] = target: HIV-1 Env of isolate MGRM-D-012 (clade D) (HIV-1)
[6] = target: HIV-1 Env of isolate MGRM-D-019 (clade D) (HIV-1)
[7] = target: HIV-1 Env of isolate MGRM-D-022 (clade D) (HIV-1)
[8] = target: HIV-1 Env of pseudovirus PVO.4 (Acute), clade B (HIV-1)
[9] = target: HIV-1 Env of pseudovirus THR0.18 (Acute), clade B (HIV-1)
[10] = target: HIV-1 JRCSF envelope glycoprotein (Env) on pseudovirus (HIV-1)
[11] = target: HIV-1 LAVIC_18 Env (HIV-1)
[12] = target: HIV-1 MGRM-A-002 envelope glycoprotein (Env) (HIV-1)
[13] = target: HIV-1 MGRM-A-005 envelope glycoprotein (Env) (HIV-1)
[14] = target: HIV-1 MGRM-A-009 envelope glycoprotein (Env) (HIV-1)
[15] = target: HIV-1 MGRM-A-011 envelope glycoprotein (Env) (HIV-1)
[16] = target: HIV-1 MGRM-C-012 Env (HIV-1)
[17] = target: HIV-1 MGRM-F1-006 Env (pseudovirus) (HIV-1)
[18] = target: HIV-1 Env of isolate 98IN022 (HIV-1)
[19] = target: HIV-1 Env of isolate MGRM-D-011 (HIV-1)
[20] = target: HIV-1 Env of isolate MGRM-D-021 (HIV-1)
[21] = target: HIV-1 Env of isolate MGRM-F1-017 (HIV-1)
[22] = target: HIV-1 Env of isolate MGRM-F1-023 (HIV-1)
[23] = target: HIV-1 Env of isolate MGRM-G-028 (subtype G) (HIV-1)
[24] = target: HIV-1 Env of isolate TRJ04551.58 (HIV-1)
[25] = target: HIV-1 Env of isolate VLGCB3 (HIV-1)
[26] = target: HIV-1 6535.3 Env (pseudovirus) (HIV-1)
[27] = target: HIV-1 APV_17 Env (pseudovirus) (HIV-1)
[28] = target: HIV-1 Env of isolate MG RM-D-002 (subtype D) (HIV-1)
[29] = target: HIV-1 Env of isolate MG RM-D-013 (subtype D) (HIV-1)
[30] = target: HIV-1 Env of isolate MG RM-D-021 (subtype D) (HIV-1)
[31] = target: HIV-1 Env of isolate MGRM-C-002 (pseudovirus) (HIV-1 isolate MGRM-C-002, subtype C)
[32] = target: HIV-1 Env of isolate MGRM-C-023 (pseudovirus) (HIV-1 isolate MGRM-C-023, subtype C)
[33] = target: HIV-1 Env of isolate MGRM-F1-004 (subtype F) (HIV-1)
[34] = target: HIV-1 Env of isolate MGRM-G-028 (HIV-1)
[35] = target: HIV-1 JR-CSF Env D185A (HIV-1 (isolate JR-CSF)) (UniProt P20871)
[36] = target: HIV-1 JR-CSF Env K168A (HIV-1 (isolate JR-CSF)) (UniProt P20871)
[37] = target: HIV-1 JR-CSF Env N156A (HIV-1 (isolate JR-CSF)) (UniProt P20871)
[38] = target: HIV-1 SF162 Env (pseudovirus) (HIV-1) (UniProt P19550)
[39] = target: HIV-1 Env of isolate MGRM-D-008 (HIV-1)
[40] = target: HIV-1 Env of isolate 92UG005 (HIV-1)

Row | Substance | IC50 (µg/ml), pseudovirus neutralization [1] | IC50 (µg/ml), pseudovirus neutralization [2] | IC50 (µg/ml), pseudovirus neutralization [4] | IC50 (µg/ml), pseudovirus neutralization [5] | IC50 (µg/ml), pseudovirus neutralization [6] | IC50 (µg/ml), pseudovirus neutralization [7] | IC50 (µg/ml), pseudovirus neutralization [8] | IC50 (µg/ml), pseudovirus neutralization [9] | IC90 (pseudovirus neutralization) [10] | IC50 [11] | IC50 (µg/ml), pseudovirus neutralization [12] | IC50 (µg/ml), pseudovirus neutralization [13] | IC50 (µg/ml), pseudovirus neutralization [14] | IC50 (µg/ml), pseudovirus neutralization [15] | IC50 [16] | IC50 (µg/ml), pseudovirus neutralization [17] | neutralization IC50 [23] | other results
1 | 2G12 (antibody) | > 50 µg/mL | 13.9 µg/mL | > 50 µg/mL | > 50 µg/mL | > 50 µg/mL | > 50 µg/mL | 0.8 µg/mL | > 50 µg/mL | 5.38 µg/mL | > 50 µg/mL | > 50 µg/mL | > 50 µg/mL | 7.47 µg/mL | > 50 µg/mL | > 50 µg/mL | > 50 µg/mL | – | IC90 (pseudovirus neutralization) [3]: > 50 µg/mL
2 | 1443_C16 (PG16) (TCN-116) (antibody) | > 50 µg/mL | > 50 µg/mL | 0.01 µg/mL | 0.35 µg/mL | 0.01 µg/mL | > 50 µg/mL | 5.43 µg/mL | 1.34 µg/mL | 0.013 µg/mL | 0.02 µg/mL | 0.004 µg/mL | 0.09 µg/mL | 0.01 µg/mL | 0.24 µg/mL | 0.48 µg/mL | 0.27 µg/mL | – | IC90 (pseudovirus neutralization) [3]: > 50 µg/mL
3 | 4E10 (antibody) | 10.6 µg/mL | 9.72 µg/mL | 1.58 µg/mL | 1.13 µg/mL | 0.04 µg/mL | 16.9 µg/mL | 18.3 µg/mL | 4.68 µg/mL | 44.1 µg/mL | > 50 µg/mL | 6.45 µg/mL | 4.09 µg/mL | 12 µg/mL | 2.88 µg/mL | 0.44 µg/mL | 1.01 µg/mL | – | IC90 (pseudovirus neutralization) [3]: 13.4 µg/mL
4 | VRC01 (antibody) | – | – | – | – | – | – | – | – | – | – | – | – | – | – | – | – | 0.164 µg/mL | neutralization IC50 [18]: 0.342 µg/mL; IC50, pseudovirus neutralization [19]: 0.075 µg/mL; IC50, pseudovirus neutralization [20]: 33.4 µg/mL; IC50, pseudovirus neutralization [21]: 1.08 µg/mL; IC50, pseudovirus neutralization [22]: 0.392 µg/mL; neutralization IC50 [24]: 0.06 µg/mL; neutralization IC50 [25]: 0.108 µg/mL
5 | PGT-122 (antibody) | – | – | – | – | – | – | – | – | – | – | – | – | – | – | – | – | – | IC50 neutralization [1]: 0.191 µg/mL
6 | 5145_B14 (PGT-127) (antibody) | – | – | – | – | – | – | – | – | – | – | – | – | – | – | – | – | – | IC50, pseudovirus neutralization [26]: 0.02 µg/mL; IC50, pseudovirus neutralization [27]: 10.4 µg/mL; IC50 (µg/mL), pseudovirus neutralization [28]: 0.6 µg/mL; IC50 (µg/mL), pseudovirus neutralization [29]: > 50 µg/mL; IC50 (µg/mL), pseudovirus neutralization [30]: 0.056 µg/mL; IC50 (µg/mL) neutralization [31]: 0.057 µg/mL; IC50 (µg/mL) neutralization [32]: 1.08 µg/mL; IC50 (µg/mL), pseudovirus neutralization [33]: 0.068 µg/mL; IC50 [21]: > 50 µg/mL; IC50 [22]: 0.119 µg/mL; IC50, pseudovirus neutralization [34]: 0.032 µg/mL; Fold IC50 increase relative to wild-type [35]: 2 fold; Fold IC50 increase relative to wild-type [36]: 1.9 fold; Fold IC50 increase relative to wild-type [37]: 1.6 fold; IC50, pseudovirus neutralization [38]: 0.019 µg/mL
7 | 4838_L06 (PGT-121) (antibody) | – | – | – | – | – | – | – | – | – | – | – | – | – | – | – | – | – | IC50, pseudovirus neutralization [26]: 0.005 µg/mL; IC50, pseudovirus neutralization [27]: 0.066 µg/mL; IC50 (ug/ml), neutralizing activity [3]: > 10 µg/mL; IC50 (µg/mL), pseudovirus neutralization [28]: 0.006 µg/mL; IC50 (µg/mL), pseudovirus neutralization [29]: > 50 µg/mL; IC50 (µg/mL), pseudovirus neutralization [30]: 5.33 µg/mL; IC50 (µg/mL) neutralization [31]: 0.019 µg/mL; IC50 (µg/mL) neutralization [32]: 0.017 µg/mL; IC50 (µg/mL), pseudovirus neutralization [33]: 1.67 µg/mL; IC50 [21]: 16.9 µg/mL; IC50 [22]: 0.097 µg/mL; IC50, pseudovirus neutralization [38]: 0.005 µg/mL
8 | PGT-143 (4980_N08) (antibody) | – | – | – | – | – | – | – | – | – | – | – | – | – | – | – | – | 43 µg/mL | –
9 | PGT-142 (4995_E20) (antibody) | – | – | – | – | – | – | – | – | – | – | – | – | – | – | – | – | 30.3 µg/mL | –
10 | PGT-121 (antibody) | – | – | – | – | – | – | – | – | – | – | – | – | – | – | – | – | – | IC50 neutralization [1]: 0.0459 µg/mL
11 | 1496_C09 (PG9) (TCN-109) (antibody) | – | – | 0.03 µg/mL | 9.31 µg/mL | 0.03 µg/mL | – | 4.01 µg/mL | 12.4 µg/mL | < 0.0025 µg/mL | 0.1 µg/mL | – | – | 0.03 µg/mL | – | 0.24 µg/mL | 1.45 µg/mL | 0.891 µg/mL | IC50 (µg/mL), pseudovirus neutralization [39]: 11.5 µg/mL; IC50 (µg/mL), pseudovirus neutralization [19]: 0.071 µg/mL
12 | 1495_C14 (PGC14) (antibody) | > 50 µg/mL | > 50 µg/mL | > 50 µg/mL | > 50 µg/mL | > 50 µg/mL | > 50 µg/mL | > 50 µg/mL | > 50 µg/mL | – | > 50 µg/mL | > 50 µg/mL | > 50 µg/mL | > 50 µg/mL | > 50 µg/mL | > 50 µg/mL | > 50 µg/mL | – | –
13 | b12 (antibody) | 47 µg/mL | > 50 µg/mL | > 50 µg/mL | 0.13 µg/mL | > 50 µg/mL | 17.6 µg/mL | > 50 µg/mL | 3.62 µg/mL | 1.17 µg/mL | > 50 µg/mL | > 50 µg/mL | 3.64 µg/mL | 4.34 µg/mL | 4.01 µg/mL | > 50 µg/mL | > 50 µg/mL | – | IC90 (pseudovirus neutralization) [3]: 34.2 µg/mL
14 | PGT-144 (4970_K22) (antibody) | – | – | – | – | – | – | – | – | – | – | – | – | – | – | – | – | > 50 µg/mL | –
15 | PGV04 (antibody) | – | – | – | – | – | – | – | – | – | – | – | – | – | – | – | – | 0.352 µg/mL | IC50 (µg/mL), pseudovirus neutralization [40]: 0.44 µg/mL; IC50 (µg/mL), pseudovirus neutralization [39]: 3.56 µg/mL; IC50 (µg/mL), pseudovirus neutralization [19]: 0.025 µg/mL; IC50 (µg/mL), pseudovirus neutralization [20]: > 50 µg/mL
16 | 4877_D15 (PGT-122) (antibody) | – | – | – | – | – | – | – | – | – | – | – | – | – | – | – | – | – | IC50, pseudovirus neutralization [26]: 0.006 µg/mL; IC50, pseudovirus neutralization [27]: 0.25 µg/mL; IC50 (ug/ml), neutralizing activity [3]: > 10 µg/mL; IC50 (µg/mL), pseudovirus neutralization [28]: 0.005 µg/mL; IC50 (µg/mL), pseudovirus neutralization [29]: > 50 µg/mL; IC50 (µg/mL), pseudovirus neutralization [30]: 11.7 µg/mL; IC50 (µg/mL) neutralization [31]: 0.022 µg/mL; IC50 (µg/mL) neutralization [32]: 0.027 µg/mL; IC50 (µg/mL), pseudovirus neutralization [33]: 1.29 µg/mL; IC50 [21]: > 50 µg/mL; IC50 [22]: 0.154 µg/mL; IC50, pseudovirus neutralization [34]: 0.01 µg/mL; IC50, pseudovirus neutralization [38]: 0.009 µg/mL
17 | PGT-141 (4964_G22; 4993_K13) (antibody) | – | – | – | – | – | – | – | – | – | – | – | – | – | – | – | – | 24.9 µg/mL | –
18 | 2F5 (antibody) | 3.3 µg/mL | > 50 µg/mL | 2.3 µg/mL | 1.7 µg/mL | 0.14 µg/mL | 8.45 µg/mL | > 50 µg/mL | > 50 µg/mL | 25.3 µg/mL | > 50 µg/mL | > 50 µg/mL | 5.7 µg/mL | 9.4 µg/mL | > 50 µg/mL | > 50 µg/mL | 1.1 µg/mL | – | IC90 (pseudovirus neutralization) [3]: 12.2 µg/mL

— patent publication US20200024330A1
